Where only a bound is given, the exact number is not on record here.

Holding throughout (experiment): cell-based or functional assay
Experiment [1] addresses T1, human NPY2 receptor (human) (UniProt P49146).
T1 sequence (looked up): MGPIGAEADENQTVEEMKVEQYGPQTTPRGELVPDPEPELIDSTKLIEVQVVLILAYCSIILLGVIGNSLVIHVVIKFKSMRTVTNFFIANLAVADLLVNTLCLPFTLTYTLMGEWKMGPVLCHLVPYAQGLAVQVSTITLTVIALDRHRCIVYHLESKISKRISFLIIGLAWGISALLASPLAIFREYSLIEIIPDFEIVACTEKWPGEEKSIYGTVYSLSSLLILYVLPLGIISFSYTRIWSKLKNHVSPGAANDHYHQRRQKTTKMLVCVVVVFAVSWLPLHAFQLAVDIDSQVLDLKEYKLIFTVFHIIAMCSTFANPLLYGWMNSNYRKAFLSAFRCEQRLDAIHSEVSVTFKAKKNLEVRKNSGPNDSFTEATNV

Another experiment addresses Y4R.
The next experiment addresses Y1R.

Y1R, sequence (P25929 whole entry): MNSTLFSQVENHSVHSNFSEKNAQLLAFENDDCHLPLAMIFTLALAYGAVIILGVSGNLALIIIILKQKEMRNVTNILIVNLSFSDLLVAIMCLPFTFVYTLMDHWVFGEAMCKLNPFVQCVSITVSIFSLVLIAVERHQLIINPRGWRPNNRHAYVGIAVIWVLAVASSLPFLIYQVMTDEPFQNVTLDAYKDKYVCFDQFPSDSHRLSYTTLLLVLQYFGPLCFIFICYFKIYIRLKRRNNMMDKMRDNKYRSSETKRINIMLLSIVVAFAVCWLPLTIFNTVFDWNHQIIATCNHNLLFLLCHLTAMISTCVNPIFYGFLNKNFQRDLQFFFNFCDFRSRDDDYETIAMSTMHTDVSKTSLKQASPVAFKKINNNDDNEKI

In experiment [1], “Ac-1,1-Aic-Nle-Pqa-Arg-His-Tyr-Leu-Asn-Leu-Val-Thr-Arg-Gln-Arg-Tyr-NH2 (Pk A) (peptide)” came in with a Y2R EC50(nM) FLIPR of 8.8 nM and a Y2R IC50(nM) cAMP of 0.64 nM. Further, the Y4R EC50(nM) FLIPR with Y4R is > 5000 nM. Also, in the experiment with Y1R, the Y1R EC50(nM) FLIPR was 1650 nM.

In experiment [1], “Ac-1,1-Aic-Nle-Pqa-Arg-His-Tyr-Leu-Asn-Leu-Val-Thr-Arg-Gln-Arg-Tyr-NH2 (Pk B) (peptide)” displayed a Y2R EC50(nM) FLIPR of 6 nM and a Y2R IC50(nM) cAMP of 1 nM. Moreover, in the experiment with Y4R, the Y4R EC50(nM) FLIPR was > 5000 nM. For the same substance, the Y1R EC50(nM) FLIPR with Y1R was found to be 2650 nM.

In the case of “Ac-2,2-Aic-Nle-Pqa-Arg-His-Tyr-Leu-Asn-Leu-Val-Thr-Arg-Gln-Arg-Tyr-NH2 (peptide)”, the Y4R EC50(nM) FLIPR with Y4R was > 5000 nM. Moreover, the Y1R EC50(nM) FLIPR with Y1R is > 5000 nM.

In the case of “Ac-Ach-Nle-Pqa-Arg-His-Tyr-Leu-Asn-Leu-Val-Thr-Arg-Gln-Arg-Tyr-NH2 (peptide)”, the Y4R EC50(nM) FLIPR in the experiment with Y4R is > 5000 nM. Besides, in the experiment with Y1R, the Y1R EC50(nM) FLIPR was > 5000 nM.

Consider “Ac-Acp-Nle-Pqa-Arg-His-Tyr-Leu-Asn-Leu-Val-Thr-Arg-Gln-Arg-Tyr-NH2 (peptide)”, for which, in the experiment with Y4R, the Y4R EC50(nM) FLIPR is > 5000 nM. Moreover, the Y1R EC50(nM) FLIPR with Y1R was > 5000 nM.

Regarding “Ac-Aib-Nle-Pqa-Arg-His-Tyr-Leu-Asn-Leu-Val-Thr-Arg-Gln-Arg-Tyr-NH2 (peptide)”, the Y4R EC50(nM) FLIPR with Y4R was > 5000 nM.
